Source: article PMC2467505

Experiments:
Assay in all cases: purified protein
[1] = substrate: CC(=O)CCC(C)=O; details: reduction, 70°C, 0.1 M sodium phosphate pH 7.0, 0.35 mM NADPH
[2] = substrate: CC(=O)C=O; details: reduction, 70°C, 0.1 M sodium phosphate pH 7.0, 0.35 mM NADPH
[3] = substrate: C[C@H](O)CC[C@H](C)O; details: oxidation, 70°C, 50 mM glycine pH 10.5, 0.35 mM NADP+
[4] = substrate: CCCC(C)O; details: oxidation, 70°C, 50 mM glycine pH 10.5, 0.35 mM NADP+

B1: AdhA (Pyrococcus furiosus; INS1A) (protein)
chain: MAKVAVITGASRGIGEAIAKALAEDGYSLALGARSVDRLEKIAKELSEKHGVEVFYDYLDVSKPESVEEFARKTLAHFGDVDVVVANAGLGYFGRLEELTEEQFHEMIEVNLLGVWRTIKAFLNSLKRTGGVAIVVTSDVSARLLPYGGGYVATKWAARALVRTFQIENPDVRFFELRPGAVDTYFGGSKAGKPKEQGYLKPEEVAEAVKYLLRLPKDVRVEELMLRSIYQKPEY
In the case of B1, the Km [1] is reported as 56.4 ± 0.6 mM, the Vmax [1] is reported as 1.9 µmol/min/mg and the kcat/Km [1] is reported as 10 M⁻¹ s⁻¹. It also gave a Km [2] of 1.2 ± 0.03 mM, a Vmax [2] of 10.4 µmol/min/mg and a kcat/Km [2] of 3800 M⁻¹ s⁻¹. It also gave a Km [3] of 5.4 ± 0.3 mM, a Vmax [3] of 12.8 µmol/min/mg and a kcat/Km [3] of 1000 M⁻¹ s⁻¹. For the same protein, the Km [4] was 30.3 ± 0.4 mM, the Vmax [4] was 13.1 µmol/min/mg and the kcat/Km [4] was 100 M⁻¹ s⁻¹.
